# Entries after “also recorded” stand apart in the source; their conditions may differ.
# T1: nDer p 1 (Dermatophagoides pteronyssinus, UniProt P08176)
# T1 construct: Der p 1 has only been found in its mature form in the D. pteronyssinus faecal particles; from tissue; host or cells: D. pteronyssinus mite material
# T1 sequence (P08176 99-320): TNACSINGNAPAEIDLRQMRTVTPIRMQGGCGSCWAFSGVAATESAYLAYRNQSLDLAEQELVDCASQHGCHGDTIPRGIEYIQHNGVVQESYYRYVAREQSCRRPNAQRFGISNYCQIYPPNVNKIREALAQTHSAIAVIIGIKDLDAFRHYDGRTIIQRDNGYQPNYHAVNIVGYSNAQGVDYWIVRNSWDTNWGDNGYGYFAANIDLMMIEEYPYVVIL
# B1: nDer p 1: major house dust mite allergen, a 25371 Da papain-like cysteine protease purified from D. pteronyssinus (protein, UniProt P08176 99-320, looked up)
# Peptidase 1: T1 sequence (P08176 99-320)
# B2: nDer p 1 pool 1: first flow-through peak of nDer p 1 from the SBTI-agarose column (protein, UniProt P08176 99-320, looked up)
# Peptidase 1: T1 sequence (P08176 99-320)
# modifications: SBTI-agarose flow-through pool 1
# B3: Pool 2: second flow-through peak of nDer p 1 from the SBTI-agarose column (protein, UniProt P08176 99-320, looked up)
# Peptidase 1: T1 sequence (P08176 99-320)
# modifications: SBTI-agarose flow-through pool 2
# How the values were obtained:
# [1] = target: T1, nDer p 1; format: biochemical, D. pteronyssinus
# Experimental: (§1) The enzymatic activity of nDer p 1 was evaluated using the peptide substrate Z-LLE linked to the fluorescent group AMC. […] When Der p 1 is added, it cleaves the bond between AMC and the peptide sequence and the fluorescence increases considerably. Therefore the product formation was evaluated in terms of increase in fluorescence.
# (§2) All activity assays were performed on a Spectra Max instrument (GeminiXS Molecular Devises) at a temperature of 37° C. The fluorescence was measured using an excitation wavelength (λex) of 350 nm and emission wavelength (λem) of 450 nm. The Spectra Max instrument was set to automix before the first read and in between reads. The enzymatic activity was measured in RFU, relative fluorescent units. Using the software SoftMax® PRO 4.3 LS, the initial velocity of the reaction (V0) was estimated from the maximal slope of the progress curve.
# (§3) Stock solutions of assay buffer (50 mM Tris (Sigma), 5 mM EDTA (Fluka)) and 1 M DTT (Merck) were made once and kept at +5° C. and −20° C. respectively. DTT was kept in aliquots of 55 μl, and when necessary DTT was added to the assay buffer just before use.
# (§4) The total volume applied for each well in the micro titer plate (Corning, 96-well non-binding black polystyrene plate) amounted to 200 μl. The reaction was always started by the addition of 50 μl of 0.1 mM or 1 mM substrate diluted in assay buffer, and the fluorescence was measured continuously for 20-90 minutes.
# It was evaluated whether nDer p 8, as a glutathione S-transferase, could catalyse the activation of nDer p 1 by GSH. In this assay, nDer p1 was kept at 1.3 μM and the GSH concentration at 100 μM (physiological concentration in the airways). nDer p 8 was added at four different concentrations: 0.4 μM, 0.6 μM, 0.8 μM and 1.2 μM. The last two components to be added to the well were GSH quickly followed by the substrate. The reaction was followed during 90 minutes.
# [2] = target: T1, nDer p 1; format: biochemical, D. pteronyssinus; remark: listed apart in the source
# Experimental: as §1, §2, §3, §4
# It was tested whether glutathione (GSH) could activate nDer p 1, and whether the activation was dose-dependent. The activity of 1.3 μM nDer p 1 was determined in the presence of different GSH concentrations of 0.5 mM, 1.0 mM, 5.0 mM, 10.0 mM and 25.0 mM. As a control, the activity was also measured in the presence of 5 mM DTT. The fluorescence was measured for 90 minutes.
# [3] = target: T1, nDer p 1; experiment: Proteolytic activity of purified nDer p 1 pools in presence or absence of E64 (Z-LLE-AMC substrate); format: biochemical, D. pteronyssinus; conditions: for enzymatic activity of Der p 1 pool: DTT as reducing agent, absence of E64, 0.1 mM Z-LLE-AMC, 37° C.
# Experimental: as §1, §2, §3, §4
# An enzymatic assay in the presence or absence of the cysteine protease specific inhibitor E64 was used in order to verify the identity of the purified protein as cysteine protease. One aliquot of nDer p 1 was pre-incubated for 1 hour at 37° C. with 25 μM E64 dissolved in assay buffer, while another aliquot was not. Afterwards the substrate was added at 0.1 mM concentration. The fluorescence was measured for 20 minutes. The concentration of nDer p 1 in the assay was 2.6 μM.
# [4] = proteolytically active Der p 1 versus Der p 1 inactivated with E64, cited from earlier work
# [5] = system: confluent airway epithelial cells; conditions: in vitro, Wan et al. 1999; cited from earlier work
# [6] = 0.1 mM GSH, nDer p 8 0.4-1.2 μM
molecule,measurement,setting,value
"nDer p 8: glutathione S-transferase from Dermaphagoides pteronyssinus, 25589 Da, 219 amino acids",time until activity differentiated from the test without nDer p 8,"[1]; 0.4 μM nDer p 8, 0.1 mM GSH",over 30 minutes
same,time after which activity increased,"[1]; 1.2 μM Der p 8, 0.1 mM GSH",approximately 8 minutes
same,velocity of the reaction at the end of the assay versus nDer p 8 concentration,"[1]; 0.1 mM GSH, FIG. 6",increases significantly
same,effect of Der p 8 on Der p 1 activity (activation by GSH),[1]; [6],higher; also recorded: enhances the activation
same,effect of Der p 8 on lag time of Der p 1 activation,[1]; [6],shorter
"N[C@@H](CCC(=O)N[C@@H](CS)C(=O)NCC(=O)O)C(=O)O [GSH, Glutathione]",activation of nDer p 1 by GSH,"[2]; 1.3 μM nDer p 1, GSH 0.5-25.0 mM, 90 minutes",dose-dependent
same,time after which nDer p 1 activity evolves,[2]; 5.0 mM GSH,approx. 8 minutes
same,time after which nDer p 1 activity boosts,[2]; 10.0 mM GSH,6 min
same,time after which nDer p 1 activity increases notably,[2]; 25.0 mM,3 min
same,correlation between initial velocity of nDer p 1 activity and GSH concentration,[2]; FIG. 4,approximate linear correlation
same,lag time of nDer p 1 activation (time required to detect enzyme activity),[2]; GSH 0.1-0.5 mM (physiological concentrations in the airways),around 30 minutes
same,speed of nDer p 1 activation compared with DTT,[2]; control 5 mM DTT,slower than the activation by DTT
same,Der p 1 activity when activated by GSH,"[1]; 0.1 mM GSH, no Der p 8",very low
same,lag time of Der p 1 activation,"[1]; 0.1 mM GSH, no Der p 8",approximately 30 minutes
"CC(C)C[C@H](NC(=O)[C@H]1O[C@@H]1C(=O)O)C(=O)NCCCCN=C(N)N (relative stereo) [E64, L-trans-epoxysuccinyl-leucylamido(4-guanidino)butane, reference compound]",inhibition of nDer p 1 proteolytic activity,"[3]; 25 μM E64, pre-incubated 1 hour at 37° C., 2.6 μM nDer p 1",completely inhibited; also recorded: entirely inhibited
B1,nDer p 1 activity when GSH is absent,[2]; no GSH,no activity
same,Der p 1 activity alone,"[1]; 1.3 μM nDer p 1, substrate present, no reducing agent",no activity
same,lung inflammation,[4]; mice,notably higher
same,total IgE level in the circulation,"[4]; sensitized mice, intranasal",significantly higher
same,effect on intercellular tight junctions,[5],causes disruption of intercellular tight junctions
B2,enzymatic activity of Der p 1 pool,[3],there was activity
same,enzymatic activity of Der p 1 pool,[3]; listed as first pool,clear activity
B3,enzymatic activity of Der p 1 pool,[3],did not show any activity
same,enzymatic activity of Der p 1 pool,[3]; listed as second pool,did not show any significant activity
